molecular target: equine FcRn (large alpha subunit p51) / equine beta-2-microglobulin complex, biotinylated (equine) (UniProt P30441); assay: SPR (Biacore), pH 6
Chain of UniProt P30441 (P30441 21-118, one chain of several): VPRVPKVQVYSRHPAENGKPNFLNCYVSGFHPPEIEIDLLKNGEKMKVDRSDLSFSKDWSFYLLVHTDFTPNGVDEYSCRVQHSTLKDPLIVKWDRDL

| Binder | Kd [nM] |
| --- | --- |
| equine IgG1 T286I (antibody, part only; not given: variable domains, not shown: another chain or arm of the molecule) constant: ASTTAPKVFALAPGCGTTSDSTVALGCLVSGYFPEPVKVSWNSGSLTSGVHTFPSVLQSSGFYSLSSMVTVPASTWTSETYICNVVHAASNFKVDKRIEPIPDNHQKVCDMSKCPKCPAPELLGGPSVFIFPPNPKDTLMITRTPEVTCVVVDVSQENPDVKFNWYMDGVEVRIATTRPKEEQFNSTYRVVSVLRIQHQDWLSGKEFKCKVNNQALPQPIERTITKTKGRSQEPQVYVLAPHPDELSKSKVSVTCLVKDFYPPEINIEWQSNGQPELETKYSTTQAQQDSDGSYFLYSKLSVDRNRWQQGTTFTCGVMHEALHNHYTQKNVSKNPGK | 18.2 |
| equine IgG4 K311V (antibody, part only; not given: variable domains, not shown: another chain or arm of the molecule) constant: ASTTAPKVFPLASHSAATSGSTVALGCLVSSYFPEPVTVSWNSGALTSGVHTFPSVLQSSGLYSLSSMVTVPASSLKSQTYICNVAHPASSTKVDKKIVIKECNGGCPAECLQVGPSVFIFPPKPKDVLMISRTPTVTCVVVDVGHDFPDVQFNWYVDGVETHTATTEPKQEQFNSTYRVVSVLPIQHVDWLSGKEFKCKVNNKALPAPVERTISKPTGQPREPQVYVLAPHRDELSKNKVSVTCLVKDFYPTDIDIEWKSNGQPEPETKYSTTPAQLDSDGSYFLYSKLTVETNRWQQGTTFTCAVMHEALHNHYTEKSVSKSPGK | 22.4 |
| equine IgG4 A426E (antibody, part only; not given: variable domains, not shown: another chain or arm of the molecule) constant: ASTTAPKVFPLASHSAATSGSTVALGCLVSSYFPEPVTVSWNSGALTSGVHTFPSVLQSSGLYSLSSMVTVPASSLKSQTYICNVAHPASSTKVDKKIVIKECNGGCPAECLQVGPSVFIFPPKPKDVLMISRTPTVTCVVVDVGHDFPDVQFNWYVDGVETHTATTEPKQEQFNSTYRVVSVLPIQHKDWLSGKEFKCKVNNKALPAPVERTISKPTGQPREPQVYVLAPHRDELSKNKVSVTCLVKDFYPTDIDIEWKSNGQPEPETKYSTTPAQLDSDGSYFLYSKLTVETNRWQQGTTFTCEVMHEALHNHYTEKSVSKSPGK | 18.2 |
| equine IgG4 K311Y (antibody, part only; not given: variable domains, not shown: another chain or arm of the molecule) constant: ASTTAPKVFPLASHSAATSGSTVALGCLVSSYFPEPVTVSWNSGALTSGVHTFPSVLQSSGLYSLSSMVTVPASSLKSQTYICNVAHPASSTKVDKKIVIKECNGGCPAECLQVGPSVFIFPPKPKDVLMISRTPTVTCVVVDVGHDFPDVQFNWYVDGVETHTATTEPKQEQFNSTYRVVSVLPIQHYDWLSGKEFKCKVNNKALPAPVERTISKPTGQPREPQVYVLAPHRDELSKNKVSVTCLVKDFYPTDIDIEWKSNGQPEPETKYSTTPAQLDSDGSYFLYSKLTVETNRWQQGTTFTCAVMHEALHNHYTEKSVSKSPGK | 21.3 |
| equine IgG4 A426D (antibody, part only; not given: variable domains, not shown: another chain or arm of the molecule) constant: ASTTAPKVFPLASHSAATSGSTVALGCLVSSYFPEPVTVSWNSGALTSGVHTFPSVLQSSGLYSLSSMVTVPASSLKSQTYICNVAHPASSTKVDKKIVIKECNGGCPAECLQVGPSVFIFPPKPKDVLMISRTPTVTCVVVDVGHDFPDVQFNWYVDGVETHTATTEPKQEQFNSTYRVVSVLPIQHKDWLSGKEFKCKVNNKALPAPVERTISKPTGQPREPQVYVLAPHRDELSKNKVSVTCLVKDFYPTDIDIEWKSNGQPEPETKYSTTPAQLDSDGSYFLYSKLTVETNRWQQGTTFTCDVMHEALHNHYTEKSVSKSPGK | 15.5 |
| equine IgG4 A426I (antibody, part only; not given: variable domains, not shown: another chain or arm of the molecule) constant: ASTTAPKVFPLASHSAATSGSTVALGCLVSSYFPEPVTVSWNSGALTSGVHTFPSVLQSSGLYSLSSMVTVPASSLKSQTYICNVAHPASSTKVDKKIVIKECNGGCPAECLQVGPSVFIFPPKPKDVLMISRTPTVTCVVVDVGHDFPDVQFNWYVDGVETHTATTEPKQEQFNSTYRVVSVLPIQHKDWLSGKEFKCKVNNKALPAPVERTISKPTGQPREPQVYVLAPHRDELSKNKVSVTCLVKDFYPTDIDIEWKSNGQPEPETKYSTTPAQLDSDGSYFLYSKLTVETNRWQQGTTFTCIVMHEALHNHYTEKSVSKSPGK | 17.4 |
| equine IgG4 A426C (antibody, part only; not given: variable domains, not shown: another chain or arm of the molecule) constant: ASTTAPKVFPLASHSAATSGSTVALGCLVSSYFPEPVTVSWNSGALTSGVHTFPSVLQSSGLYSLSSMVTVPASSLKSQTYICNVAHPASSTKVDKKIVIKECNGGCPAECLQVGPSVFIFPPKPKDVLMISRTPTVTCVVVDVGHDFPDVQFNWYVDGVETHTATTEPKQEQFNSTYRVVSVLPIQHKDWLSGKEFKCKVNNKALPAPVERTISKPTGQPREPQVYVLAPHRDELSKNKVSVTCLVKDFYPTDIDIEWKSNGQPEPETKYSTTPAQLDSDGSYFLYSKLTVETNRWQQGTTFTCCVMHEALHNHYTEKSVSKSPGK | 18.2 |
| equine IgG4 K311W (antibody, part only; not given: variable domains, not shown: another chain or arm of the molecule) constant: ASTTAPKVFPLASHSAATSGSTVALGCLVSSYFPEPVTVSWNSGALTSGVHTFPSVLQSSGLYSLSSMVTVPASSLKSQTYICNVAHPASSTKVDKKIVIKECNGGCPAECLQVGPSVFIFPPKPKDVLMISRTPTVTCVVVDVGHDFPDVQFNWYVDGVETHTATTEPKQEQFNSTYRVVSVLPIQHWDWLSGKEFKCKVNNKALPAPVERTISKPTGQPREPQVYVLAPHRDELSKNKVSVTCLVKDFYPTDIDIEWKSNGQPEPETKYSTTPAQLDSDGSYFLYSKLTVETNRWQQGTTFTCAVMHEALHNHYTEKSVSKSPGK | 27.1 |
| equine IgG4 A426F (antibody, part only; not given: variable domains, not shown: another chain or arm of the molecule) constant: ASTTAPKVFPLASHSAATSGSTVALGCLVSSYFPEPVTVSWNSGALTSGVHTFPSVLQSSGLYSLSSMVTVPASSLKSQTYICNVAHPASSTKVDKKIVIKECNGGCPAECLQVGPSVFIFPPKPKDVLMISRTPTVTCVVVDVGHDFPDVQFNWYVDGVETHTATTEPKQEQFNSTYRVVSVLPIQHKDWLSGKEFKCKVNNKALPAPVERTISKPTGQPREPQVYVLAPHRDELSKNKVSVTCLVKDFYPTDIDIEWKSNGQPEPETKYSTTPAQLDSDGSYFLYSKLTVETNRWQQGTTFTCFVMHEALHNHYTEKSVSKSPGK | 17.6 |
| equine IgG4 A426G (antibody, part only; not given: variable domains, not shown: another chain or arm of the molecule) constant: ASTTAPKVFPLASHSAATSGSTVALGCLVSSYFPEPVTVSWNSGALTSGVHTFPSVLQSSGLYSLSSMVTVPASSLKSQTYICNVAHPASSTKVDKKIVIKECNGGCPAECLQVGPSVFIFPPKPKDVLMISRTPTVTCVVVDVGHDFPDVQFNWYVDGVETHTATTEPKQEQFNSTYRVVSVLPIQHKDWLSGKEFKCKVNNKALPAPVERTISKPTGQPREPQVYVLAPHRDELSKNKVSVTCLVKDFYPTDIDIEWKSNGQPEPETKYSTTPAQLDSDGSYFLYSKLTVETNRWQQGTTFTCGVMHEALHNHYTEKSVSKSPGK | 33.3 |
| equine IgG4 A426K (antibody, part only; not given: variable domains, not shown: another chain or arm of the molecule) constant: ASTTAPKVFPLASHSAATSGSTVALGCLVSSYFPEPVTVSWNSGALTSGVHTFPSVLQSSGLYSLSSMVTVPASSLKSQTYICNVAHPASSTKVDKKIVIKECNGGCPAECLQVGPSVFIFPPKPKDVLMISRTPTVTCVVVDVGHDFPDVQFNWYVDGVETHTATTEPKQEQFNSTYRVVSVLPIQHKDWLSGKEFKCKVNNKALPAPVERTISKPTGQPREPQVYVLAPHRDELSKNKVSVTCLVKDFYPTDIDIEWKSNGQPEPETKYSTTPAQLDSDGSYFLYSKLTVETNRWQQGTTFTCKVMHEALHNHYTEKSVSKSPGK | 14.5 |
| equine IgG4 A426H (antibody, part only; not given: variable domains, not shown: another chain or arm of the molecule) constant: ASTTAPKVFPLASHSAATSGSTVALGCLVSSYFPEPVTVSWNSGALTSGVHTFPSVLQSSGLYSLSSMVTVPASSLKSQTYICNVAHPASSTKVDKKIVIKECNGGCPAECLQVGPSVFIFPPKPKDVLMISRTPTVTCVVVDVGHDFPDVQFNWYVDGVETHTATTEPKQEQFNSTYRVVSVLPIQHKDWLSGKEFKCKVNNKALPAPVERTISKPTGQPREPQVYVLAPHRDELSKNKVSVTCLVKDFYPTDIDIEWKSNGQPEPETKYSTTPAQLDSDGSYFLYSKLTVETNRWQQGTTFTCHVMHEALHNHYTEKSVSKSPGK | 17.8 |
